Test results published in patent publication US20250236642A1, “PHARMACEUTICAL COMPOSITION FOR TREATMENT OR PREVENTION OF ADULT T-CELL LEUKEMIA” (NEC Corporation, priority 2022, published 2025).
Where two headings read alike, the source gives them in different places.

Assays:
HLA-A*02:06 molecule [1] = experiment: flow cytometry, RA2.6 cells
HLA-A*24:02 molecule [2] = experiment: flow cytometry, C1R-A24 cells
HLA-A*02:01 molecule [3] = experiment: flow cytometry, T2 cells
HLA-A*02:06 molecule [4] = experiment: flow cytometry, RA2.6 cells; remark: listed apart in the source
HLA-A*02:01 molecule [5] = experiment: flow cytometry, T2 cells; remark: listed apart in the source
HLA-A*24:02 molecule [6] = experiment: flow cytometry, C1R-A24 cells; remark: listed apart in the source

Binder	-log Kd value (HLA-A*02:06 molecule [1])	also measured
ALRPAPALL [peptide of SEQ ID NO: 26]	> -3.37	–
KFLEAFHEV [peptide of SEQ ID NO: 8]	-5.81	–
LLEEHGATL [peptide of SEQ ID NO: 41]	-5.3	–
LVITRKSFI [peptide of SEQ ID NO: 30]	-3.61	–
SPDEFSNDF [peptide of SEQ ID NO: 73]	> -3	–
LLNPNRQTI [peptide of SEQ ID NO: 23]	-3.53	–
LLITRKSFI [peptide of SEQ ID NO: 16]	-4.63	–
FSNDFGQSL [peptide of SEQ ID NO: 35]	-4.71	–
LIEEHGATL [peptide of SEQ ID NO: 40]	-4.81	–
YPGWHSTTI [peptide of SEQ ID NO: 52]	–	-log Kd value (HLA-A*24:02 molecule [2]; remark: other sources report otherwise): -5.66
ALQPPCPNL (modifications not checked) [peptide of SEQ ID NO: 31]	–	-log Kd value (HLA-A*02:01 molecule [3]): -5.13; -log Kd value (HLA-A*24:02 molecule [2]): -5.31
GSPDEFSND [peptide of SEQ ID NO: 72]	> -3	–
LVEEHGATL [peptide of SEQ ID NO: 43]	-4.86	–
ALPAPHLTL (modifications not checked) [peptide of SEQ ID NO: 18]	–	-log Kd value (HLA-A*02:01 molecule [3]): -5.99; -log Kd value (HLA-A*24:02 molecule [2]): -6.73
YVYDPPTTI [peptide of SEQ ID NO: 2]	-5.55	–
LTITRKSFI [peptide of SEQ ID NO: 45]	-3.79	–
VMSHHGEKL [peptide of SEQ ID NO: 19]	-4.3	–
EAIDGYITL [peptide of SEQ ID NO: 47]	-4.72	–
ISAYRTCWI [peptide of SEQ ID NO: 34]	-3.14	–
ARHSTIPLV [peptide of SEQ ID NO: 77]	> -3	–

Binder	-log Kd value (HLA-A*02:06 molecule [1])	also measured
ETLQFIDSM [peptide of SEQ ID NO: 53]	-3.37	–
ATAPPTAQL [peptide of SEQ ID NO: 25]	-6.16	–
CMIVHQGTI [peptide of SEQ ID NO: 36]	-4.37	–
MLPQTPSHL [peptide of SEQ ID NO: 24]	-3.96	–
IQYSSFHNL (modifications not checked) [peptide of SEQ ID NO: 21]	–	-log Kd value (HLA-A*02:01 molecule [3]): -5.29; -log Kd value (HLA-A*24:02 molecule [2]): -6.53
CTDEHQWQL [peptide of SEQ ID NO: 39]	-6.8	–
SLVLTWAAL [peptide of SEQ ID NO: 14]	-6.24	–
ATLAPAVLL [peptide of SEQ ID NO: 10]	-6.12	–
SSFEFFEEA [peptide of SEQ ID NO: 37]	-7.42	–
LAEEHGATL [peptide of SEQ ID NO: 61]	-4.5	–
LHEEHGATL [peptide of SEQ ID NO: 79]	> -3	–
YTYDPPTTI [peptide of SEQ ID NO: 3]	-6.17	-log Kd value (HLA-A*02:06 molecule [4]): -5.17
YFFTVIFSF [peptide of SEQ ID NO: 44]	> -4.4	–
IFADVSSST [peptide of SEQ ID NO: 78]	> -3	–
LPPARHSTI [peptide of SEQ ID NO: 76]	> -3	–
YLYDPPTTI [peptide of SEQ ID NO: 4]	-5.87	–
VLLQQFQTA [peptide of SEQ ID NO: 15]	-5.47	–
THLDAGTVE [peptide of SEQ ID NO: 75]	> -3	–
AQAPPTAQL [peptide of SEQ ID NO: 5]	-5.85	–
LIITRKSFI [peptide of SEQ ID NO: 29]	-3.64	–

Binder	-log Kd value (HLA-A*02:06 molecule [1])	also measured
GYITLGKPH [peptide of SEQ ID NO: 80]	> -3	–
ALPKIRARV [peptide of SEQ ID NO: 12]	-4.78	–
LMEEHGATL [peptide of SEQ ID NO: 13]	-5.68	–
ASPSHMTSM [peptide of SEQ ID NO: 81]	> -3	–
IALETPVWI (modifications not checked) [peptide of SEQ ID NO: 20]	–	-log Kd value (HLA-A*02:01 molecule [3]): -5.11; -log Kd value (HLA-A*24:02 molecule [2]): -5.48
LAITRKSFI [peptide of SEQ ID NO: 46]	-3.04	–
GILSDHQQS [peptide of SEQ ID NO: 74]	> -3	–
STGESAQTS [peptide of SEQ ID NO: 71]	> -3	–
AQISAYRTC [peptide of SEQ ID NO: 50]	-4.09	–
ILSDHQQSQ [peptide of SEQ ID NO: 70]	> -3	–
YQLSPPITW (modifications not checked) [peptide of SEQ ID NO: 32]	–	-log Kd value (HLA-A*02:01 molecule [5]): -3.46; -log Kd value (HLA-A*02:01 molecule [3]): -3.46; -log Kd value (HLA-A*24:02 molecule [6]): -5.76; -log Kd value (HLA-A*24:02 molecule [2]): -6.76
LLLFSAAAL [peptide of SEQ ID NO: 1]	-4.96	–
LTEEHGATL [peptide of SEQ ID NO: 42]	-4.92	–
GTHLDAGTV [peptide of SEQ ID NO: 51]	-3.66	–
SLPNEKQTS [peptide of SEQ ID NO: 69]	> -3	–
VMQIDGVQP [peptide of SEQ ID NO: 67]	-3.41	–
ALQFLIPRL (modifications not checked) [peptide of SEQ ID NO: 22]	–	-log Kd value (HLA-A*02:01 molecule [3]): -5.9; -log Kd value (HLA-A*24:02 molecule [2]): -4.96
LMITRKSFI [peptide of SEQ ID NO: 17]	-4.53	–
CIDEHQWQL [peptide of SEQ ID NO: 28]	-5.25	–
ALAPPTAQL [peptide of SEQ ID NO: 6]	-6.41	–
